Source: patent EP4763865A1
Where two headings read alike, the source gives them in different places. Each block holds one molecule with its values, some of them ahead of it.

Columns and labels:
[1] = molecular target: Human c-MET, His Tag (Sino Biological, Cat. No. 10692-H08H) (human) (UniProt P08581); assay: ELISA, coated human c-MET His Tag, 4-parameter fit
[2] = molecular target: human c-MET on Hs746T human gastric cancer cells (human) (UniProt P08581); assay: flow cytometry on Hs746T cells, 4-parameter fit
[3] = molecular target: human c-MET on Hs746T human gastric cancer cells (human) (UniProt P08581); assay: cell-based or functional assay
[4] = molecular target: human c-MET on Hs746T human gastric cancer cells (human) (UniProt P08581); assay: cell-based or functional assay; remark: listed apart in the source
[5] = molecular target: human c-MET on Hs746T human gastric cancer cells (human) (UniProt P08581); assay: flow cytometry on Hs746T cells, PE secondary antibody, 4-parameter fit
[6] = molecular target: human c-MET antigen (human) (UniProt P08581); assay: ELISA, E. coli lysate supernatant of clone on human c-MET antigen
[7] = molecular target: human c-MET antigen (human) (UniProt P08581); assay: ELISA OD450 of clone supernatant divided by PBS blank

Bottom [1]: 0.0582 OD450
EC50 [1]: 4.09 µg/mL
Top [1]: 0.0795 OD450
Bottom [2]: -124 MFI
EC50 [2]: 9.74 µg/mL
Top [2]: 722 MFI
Molecule: Isotype (antibody)

Bottom [1]: 0.0407 OD450
EC50 [1]: 0.00925 µg/mL
Top [1]: 2.02 OD450
Bottom [2]: 610 MFI
EC50 [2]: 0.788 µg/mL
Top [2]: 8340 MFI
Bottom [5]: 18000 MFI
EC50 [5]: 0.31 µg/mL
Top [5]: 647000 MFI
Molecule: MHB07-PC (Telisotuzumab) (antibody)
Fab-ZAP endocytosis-mediated cell killing, Bottom (killing rate %) [3]: 15.4%
Fab-ZAP endocytosis-mediated cell killing, EC50 [3]: 0.0128 nM
Fab-ZAP endocytosis-mediated cell killing, Top (killing rate %) [3]: 98.3%
Fab-ZAP endocytosis-mediated cell killing, Bottom (killing rate %) [4]: 49.7%
Fab-ZAP endocytosis-mediated cell killing, EC50 [4]: 0.0199 nM
Fab-ZAP endocytosis-mediated cell killing, Top (killing rate %) [4]: 83.2%

OD450 [6]: 3.26 OD450
Unique seq/PBS (fold over PBS) [7]: 42.3
B1: MH172-HGF R-7-2-92 (VHH)
VHH: QLQLVESGGGLVQAGGSLRLSCAASGRITNTYVMGWFRQAPGKERELQAAITWTVGSTYYVDSVKGRFTISRDNAKNTLYLQMNSLKPEDTAVYYCAASRFSAWPPRGTLGEWNSWGQGTQVTVSS
